Assay results as given in patent publication US20230117883A1.

Target: human transferrin receptor 1 (human) (UniProt P02786)
Assay: Carterra LSA biosensor, 25C; IgG captured on anti-IgG lawn, hTfR1 injected; 1:1 Langmuir fit

UniProt P02786, sequence (P02786 89-760 limits assumed): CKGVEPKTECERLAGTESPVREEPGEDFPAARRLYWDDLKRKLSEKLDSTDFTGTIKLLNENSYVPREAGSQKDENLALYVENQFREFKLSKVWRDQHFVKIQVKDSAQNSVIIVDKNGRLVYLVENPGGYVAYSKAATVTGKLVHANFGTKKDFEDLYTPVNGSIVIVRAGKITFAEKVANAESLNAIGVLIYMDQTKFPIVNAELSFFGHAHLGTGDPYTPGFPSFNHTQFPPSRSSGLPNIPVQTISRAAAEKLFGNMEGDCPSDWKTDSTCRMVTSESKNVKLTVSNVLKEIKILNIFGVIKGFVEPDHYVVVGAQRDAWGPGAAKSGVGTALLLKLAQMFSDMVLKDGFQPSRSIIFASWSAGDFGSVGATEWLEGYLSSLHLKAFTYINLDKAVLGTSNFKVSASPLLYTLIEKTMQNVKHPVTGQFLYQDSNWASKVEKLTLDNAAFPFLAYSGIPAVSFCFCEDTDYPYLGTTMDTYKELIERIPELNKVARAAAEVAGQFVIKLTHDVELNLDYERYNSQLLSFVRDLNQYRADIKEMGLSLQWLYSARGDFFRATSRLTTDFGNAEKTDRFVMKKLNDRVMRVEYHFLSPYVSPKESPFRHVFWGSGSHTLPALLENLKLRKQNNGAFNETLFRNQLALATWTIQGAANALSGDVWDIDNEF

- Kd: 0.536 nM
- kon: 774000 M⁻¹ s⁻¹
Substance: OKT9 mIgG (known anti-TfR1 antibody, control)
